The text below walks through data of PMC8351545 (Molecular Biology of the Cell, 2021).

For test [1], the target named is recombinant phosphomimetic CENP-T/W complex (T11D, T27D, T85D) (human) (UniProt Q96BT3). As to the kind of experiment: pull-down.
Test [2] deals with recombinant full-length wild-type CENP-T/W complex (human, UniProt Q96BT3 1-561; Q5EE01 1-88). As to the kind of experiment: pull-down.
recombinant full-length wild-type CENP-T/W complex, sequence (Q96BT3 whole entry, chain 1 of 2): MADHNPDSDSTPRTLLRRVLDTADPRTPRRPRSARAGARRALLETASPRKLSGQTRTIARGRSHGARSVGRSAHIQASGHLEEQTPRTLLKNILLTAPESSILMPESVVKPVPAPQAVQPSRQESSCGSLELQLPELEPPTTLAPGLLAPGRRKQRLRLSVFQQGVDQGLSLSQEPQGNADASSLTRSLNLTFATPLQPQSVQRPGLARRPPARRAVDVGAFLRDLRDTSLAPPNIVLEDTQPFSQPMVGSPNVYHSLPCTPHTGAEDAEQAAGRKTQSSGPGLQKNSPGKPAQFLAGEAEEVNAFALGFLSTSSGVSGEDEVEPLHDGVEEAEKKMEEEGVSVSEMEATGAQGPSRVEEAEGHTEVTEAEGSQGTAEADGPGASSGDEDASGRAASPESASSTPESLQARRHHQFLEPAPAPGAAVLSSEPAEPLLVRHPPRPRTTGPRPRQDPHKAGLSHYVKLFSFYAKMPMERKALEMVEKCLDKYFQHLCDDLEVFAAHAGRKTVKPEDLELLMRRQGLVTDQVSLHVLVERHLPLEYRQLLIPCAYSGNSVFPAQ
recombinant full-length wild-type CENP-T/W complex, sequence (Q5EE01 whole entry, chain 2 of 2): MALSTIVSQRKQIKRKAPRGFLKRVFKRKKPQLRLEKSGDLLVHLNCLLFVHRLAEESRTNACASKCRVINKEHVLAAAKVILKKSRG

recombinant phosphomimetic CENP-T/W complex (T11D, T27D, T85D) (human), sequence (Q96BT3 whole entry T11D/T27D/T85D, chain 1 of 2): as the sequence (Q96BT3 whole entry, chain 1 of 2) above, with T11D, T27D, T85D counted along it
recombinant phosphomimetic CENP-T/W complex (T11D, T27D, T85D) (human), sequence (Q5EE01 whole entry, chain 2 of 2, further chain): as the sequence (Q5EE01 whole entry, chain 2 of 2) above

Take “recombinant full-length GFP-fused human Ndc80 complex (from UniProt O14777 1-642; Q9BZD4 1-464; Q8NBT2 1-197; Q9HBM1 1-224)”: in test [1], the fold weaker recruitment than the Ndc80 proteins with shortened stalk came to 5 times weaker.

B1: human Bonsai Ndc80 complex (Bonsai Ndc80-GFP) (complex)
chain 1: MKRSSVSSGGAGRLSMQELRSQDVNKQGLYTPQTKEKPTFGKLSINKPTSERKVSLFGKRTSGHGSRNSQLGIFSSSEKIKDPRPLNDKAFIQQCIRQLCEFLTENGYAHNVSMKSLQAPSVKDFLKIFTFLYGFLCPSYELPDTKFEEEVPRIFKDLGYPFALSKSSMYTVGAPHTWPHIVAALVWLIDCIKIHTAMKESSPLFDDGQPWGEETEDGIMHNKLFLDYTIKCYESFMSGADSFDEMNAELQSKLKDLFNVDAFKLESLEAKNRALNEQIARLEQERSTANKANAERLKRLQKSADLYKDRLGLEIRKIYGEKLQFIFTNIDPKNPESPFMFSLHLNEARDYEVSDSAPHLEGLAEFQENVRKTNNFSAFLANVRKAFTATVYN
chain 2: METLSFPRYNVAEIVIHIRNKILTGADGKNLTKNDLYPNPKPEVLHMIYMRALQIVYGIRLEHFYMMPVNSEVMYPHLMEGFLPFSNLVTHLDSFLPICRVNDFETADILCPKAKRTSRFLSGIINFIHFREACRETYMEFLWQYKSSADKMQQLNAAHQEALMKLERLEKEVDEDTTVTIPSAVYVAQLYHQVSKIEWDYECEPGMVKGIHHGPSVAQPIHLDSTQLSRKFISDYLWSLVDTEW
As to B1, the binding result in test [2] is “binds”.
